This note sets out measurements from the nanobody polyreactivity screen of Harvey et al. (2022).

The data set is described as follows: yeast display, Sf9 membrane polyspecificity reagent, FACS + sequencing; frameworks hold sequencing errors. A digest of the protocol: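 Galactose induction of a Saccharomyces cerevisiae BJ5465 synthetic nanobody display library ran 36–48 hours. The cells were then stained for 1 hour at 4 °C with 10% biotinylated, detergent-solubilized Sf9 membrane reagent, pulled down on streptavidin microbeads and FACS-sorted into low and high (top ~1%) gates on expression and reagent-binding fluorescence. Labels for polyreactivity follow the gate of origin.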
For “QVQLVESGGGLVHAGGSLRLSCAASGFTFGGYALGWYRQAPGKERELVAAITGSGGNTFYADSVKGRFTISRDNAKNTVYLQMNSLKPEDTAVYYCAKTWYPWSRYGYYRRYDSWGQGTQVTVSS”, the “polyreactivity (PSR sort gate)” value is “low polyreactivity”.

Take “QVQLVESGGGLVHAGGSLRLSCAASGFTFGGYAMGWYRQAPGIEREFVAAISSSGGRTYYADSVKRRFTISRDNAKNTVYLPMNSLKPEDTAVYDCNVGQYLRARRPVDSWGQGTQVSVSS”: the “polyreactivity (PSR sort gate)” value was “high polyreactivity”.

On to “QVQLVESGGGLVHAGGSLRLSCAASGGTFTYYTMGWYRKAPGKERELVARISKNGGRTYYADSVKGRFTLSRDNAKNTLYLKMISLKPEDTAVYYCNAAGRPYDFSGGRTMEYWGQGTQVTVST”, for which the “polyreactivity (PSR sort gate)” value is reported as “high polyreactivity”.

Turning to “QVQLVESGGGLVHAGGSLRLSCAASGIIFDDYAMGWNRQAPGKERELVAAIRSGVSTNYADSVKGRFTISRDNAKNTVYLQMNSLKPEDTAVYYCAARNTAPYFTEYDYWGQGTQVTVSS”, the “polyreactivity (PSR sort gate)” value is listed as “low polyreactivity”.

Take “QVQLVESGGGLVHAGGSLRLSCAASGITYSRYAMGWYRQAPGKERELVAAITWDGGRTYYADTVKGRFTISRDIAKNTVYLQMNSVKPEDTAVYYCAAGSAWWYYWGQGTQVTVSS”: the “polyreactivity (PSR sort gate)” value is on record as “high polyreactivity”.

For the sequence “QVQLVESGGGLVHAGGSLRLSCAASGLIFKTYTMGWYRQAPGKEREFVAAITTSGGSTYYADSVKGRFTISRDNAKNTDYVEMNRLKPEETAVYFCAAEGYTDATQSLFYYWGQGTQVTVSS”, the “polyreactivity (PSR sort gate)” value is “high polyreactivity”.

For “QVQLVESGGGLVHAGGSLRLSCAASGLTFDWYTMGWYRQAPGKERELVATINSGGSTDYADSVKGRFTISRDNAKNTVYLQMNSLKPEDTAVYYCNAEYGYSGVGDDYWGQGTQVTVSS”, the “polyreactivity (PSR sort gate)” value is “low polyreactivity”.

For “QVQLVESGGGLVHAGGSLRLSCAASGNIFKRNAMGWYRQAHGKERELVAAISGSGVRTYYADSVKGRFTISRDNAKNSVYLQMNSLKPEDTAVYYCNAEIRYSAWNWLSYEYWGQGTQVTVSS”, the “polyreactivity (PSR sort gate)” value is listed as “high polyreactivity”.

In the case of “QVQLVESGGGLVHAGGSLRLSCAASGNTFIRYAIGWYRQARGTQRELVASITKRCGSTYYADSVKGRFTISRDNAKNTVYLQMNCLKPEDTAVYYCDRGPSGTPIGNTPYGDNRYNSWGEGTQVTVSS”, the “polyreactivity (PSR sort gate)” value is recorded as “low polyreactivity”.

Regarding “QVQLVESGGGLVHAGGSLRLSCAASGRIFGTNAMGWYIQAPGKERELVATITRGGGNTYYADSVKVRFTISRDHAMNTVDLQMNSLKPEDTAVYYCNVDYGVHVPPRDYWGQGTQVTVSS”, the “polyreactivity (PSR sort gate)” value is listed as “low polyreactivity”.

As for “QVQLVESGGGLVHAGGSLRLSCAASGRIFQVYAMGWYRQAPGKERELVAAISARGGSTYYADSVKGRFTISRDNAKNTVYLQMNSLKPEDTAVYYCAARSAYGTQRLYYWGQGTQVTVSS”, the “polyreactivity (PSR sort gate)” value was “high polyreactivity”.

Take “QVQLVESGGGLVHAGGSLRLSCAASGRIFTSYVMGWYRQAPAKERELVAAITRSGGSTYYADSVKGRFTISRDNAKNTVYLQMISLKPEDTAVYYCNALTRRQKGGEGGGYWGQGTQVTVSS”: the “polyreactivity (PSR sort gate)” value is “high polyreactivity”.

In the case of “QVQLVESGGGLVHAGGSLRLSCAASGRIFTWNAMGWYRQAPGKERELVARISSGTRTNYADSVKGRFTISRDNAKNTVYLQMNSLKPEDTAVYYCAAGYYYGYPPRDYWGQGTQVTVSS”, the “polyreactivity (PSR sort gate)” value is on record as “high polyreactivity”.

On to “QVQLVESGGGLVHAGGSLRLSCAASGRIFVRNDMGCYRQAPGKERELVAAISWDGGSTYYADSVKGRFTISRDNAKNTVYLQMNSLKPEDTAVYYCATDATRPWYDYWGQGTQVTVSS”, for which the “polyreactivity (PSR sort gate)” value is on record as “low polyreactivity”.

Turning to “QVQLVESGGGLVHAGGSLRLSCAASGRIFYKYAMAWYRQAPGKERELVAAISTRGGSTYYADSVKWRFTISRDNAKNTVYLQMNSLKPEDTAVYYCAALSAYGYDYWGQGTQVTVSS”, the “polyreactivity (PSR sort gate)” value is listed as “high polyreactivity”.

With “QVQLVESGGGLVHAGGSLRLSCAASGRIFYYNAMGWYRQAPGKEREFVAAIRSSGGSTYYSDSVKGRFTISRDNAKNTVYLQMNSLKPEDTAVYYCAADFYGLGDYGVDYWGQGTQVTVSS”, the “polyreactivity (PSR sort gate)” value was “low polyreactivity”.

For the sequence “QVQLVESGGGLVHAGGSLRLSCAASGRIYYFNAMGWYRQAPGKERELVATITYIGGSTHYADSEKGRFTISRDNAKNTVYLQMNSLKPEVTAVYYCAVRDGKDTDTYWYGYWGQGTQVTVSS”, the “polyreactivity (PSR sort gate)” value is on record as “low polyreactivity”.

“QVQLVESGGGLVHAGGSLRLSCAASGRTFSYYTMAWYRQAPGKERELVAAISGRGGSTYYADSVKGRFTISRDNAKNTVYLQMNSLKPEDTAVYYCNVVKQYLGGVPDFDYWGQGTQVTVSS”: the “polyreactivity (PSR sort gate)” value is given as “low polyreactivity”.

Consider “QVQLVESGGGLVHAGGSLRLSCAASGRTFTRNAMGWYRQAPGKERELVAAISISGGRTYYADSVKGRFTISRDNAKNTVSLQMNSLKPEDTAVYYCANVTTSKYDYDYWGQGTQVTVSS”, for which the “polyreactivity (PSR sort gate)” value is on record as “high polyreactivity”.

With “QVQLVESGGGLVHAGGSLRLSCAASGRTFYGNAMGWYRQAPGKEREFVAGISWRGGRTYYADSVKGRFTISRDNAKNTVYLQMHSLKPEDTGVYYCNARYIYTRPRPRNYWGLGTQVTVSS”, the “polyreactivity (PSR sort gate)” value is listed as “high polyreactivity”.

Take “QVQLVESGGGLVHAGGSLRLSCAASGRTLGGYAMGWYRQAPGKERELVAAISWNGGSTYYADSVKVRFTISRDNAKNTVYFQMNCLKPEDSAVYYCARVYSGPKAGAYDYWGQGTQVTVSS”: the “polyreactivity (PSR sort gate)” value was “high polyreactivity”.

Turning to “QVQLVESGGGLVHAGGSLRLSCAASGSFFRSYAMGWYRQAPGKEMEWVATISSSTGSTYYADSVKGRFTISRDNAKNTVYLQMNSLKPEDTSVYYCAAVQPVKSCSGYHFWYYWGQGTQVTVSS”, the “polyreactivity (PSR sort gate)” value was “high polyreactivity”.

In the case of “QVQLVESGGGLVHAGGSLRLSCAASGSIFDYYAMGWYRQAPGKERELVAAISTSTSSTYYADSVKGRFTISRDNAKNTVCLQMNSLKPEDTAVYYCAAEGESQPESPGYDYWGQGTQVTVSS”, the “polyreactivity (PSR sort gate)” value was “low polyreactivity”.

For the sequence “QVQLVESGGGLVHAGGSLRLSCAASGSIFGDYAMGWYRQAPGKERELVAAITRRGSTYYADSVKGRFTISRDNAKNTVYLQMNSLIPEDTAVFYCAKDVYPGRAGRPGIPYPYDYWGQGTQVTVSS”, the “polyreactivity (PSR sort gate)” value is “low polyreactivity”.

As for “QVQLVESGGGLVHAGGSLRLSCAASGSIFGTNAMGWYRQAPGQERELVAAISYSGGSTYYADSVKGRFTISRDPAKNTVYLQMNSLKPDDTAVYYCAKVVRYWWERDYWGKGTQVTVSS”, the “polyreactivity (PSR sort gate)” value was “high polyreactivity”.

With “QVQLVESGGGLVHAGGSLRLSCAASGSIFGVNMGWYRQAPGKERELVASITSGGSTNYADSVKGRFTISRDNAKNTVYLQMNSLKPEDTAVYYCAARAERVREYNYWGQGTQVTVSS”, the “polyreactivity (PSR sort gate)” value was “low polyreactivity”.

Consider “QVQLVESGGGLVHAGGSLRLSCAASGSIFKYYAMGWYRQAPGKERELVAAISSGGSTNYADSVKGRFTISRDNAKNTVYLQMNSLKPEDTAVYYCAVDRYCWLDGYDYWGQGTQVTVSS”, for which the “polyreactivity (PSR sort gate)” value was “high polyreactivity”.

“QVQLVESGGGLVHAGGSLRLSCAASGSIFTRNAMGWYRQAPGKERELVAAISRRGVSTYYADSVKGRFTISRDNAKNTVYLQMNSLKPEDTAVYYCNATIRYYRRGKLYDYWGQGTQVTVSS”: the “polyreactivity (PSR sort gate)” value is recorded as “high polyreactivity”.

On to “QVQLVESGGGLVHAGGSLRLSCAASGSIFVPYALGWYRQAPGKDRELVAAMTSSGSSTYYADSVKGRFTISRDNAKNTVYLQMNSLKPDDTAGYYCAADYFDWEGNGYYYWGQGNQVTVSS”, for which the “polyreactivity (PSR sort gate)” value is “high polyreactivity”.

As to “QVQLVESGGGLVHAGGSLRLSCAASGSIFYNYAKGWYRQAPGKERELVAAIDSGGSTYYADSVKGRFTISRDNAKNTVYLQMNSLKPEDSAVYSCAADTYWFVYYGYDYWGQGTQVTVSS”, the “polyreactivity (PSR sort gate)” value is reported as “low polyreactivity”.
